# Marks after values point to notes of the source that are not given here.
# B1: 4133-6294 BYbe: anti-CD45 BYbe (Fab-scFv): 4133 Fab HC-G4S linker-6294 scFv heavy chain paired with 4133 light chain (antibody)
# heavy: QEQLVESGGGLVQPEGSLTLTCTASGFSFSGNYYMCWVRQAPGKGLEWIGCLYTGSSGSTYYASWAKGRFTISKTSSTTVTLQMTSLTAADTATYFCARDLGYEIDGYGGLWGQGTLVTVSSGQPKAPSVFPLAPCCGDTPSSTVTLGCLVKGYLPEPVTVTWNSGTLTNGVRTFPSVRQSSGLYSLSSVVSVTSSSQPVTCNVAHPATNTKVDKTVAPSTCSKPGGGGSGGGGSEVQLVESGAELARPGASVKMSCKASGYTFTSYTMHWVKQRPGQCLEWIGYINPSSGYTEYNQKFKDKTTLTADKSSSTAYLQLSSLTSEDSAVYYCARVGDGFYPSWLAYWGQGTLVTVSSGGGGSGGGGSGGGGSGGGGSDIQMTQSPKFLLVSAGDRVTITCKASQSVRNDVAWYQQKPGQSPKLLIFYASKRYTGVPDRFTGSGYGTDFTFTISTVQAEDLAVYFCQQDYSSPTTFGCGTKLEIK
# light: AQVLTQTPSPVSAVVGGTVSISCQASQSVYNNNNLSWYQQKPGQPPKLLIYDASKLASGVPSRFKGSGSGTQFTLTISGVQCDDAATYYCLGGYYSSGWYFAFGGGTKVVVKRTPVAPTVLIFPPAADQVATGTVTIVCVANKYFPDVTVTWEVDGTTQTTGIENSKTPQNSADCTYNLSSTLTLTSTQYNSHKEYTCKVTQGTTSVVQSFNRGDC
# Assays:
# MC116 = experiment: Apoptosis of cell lines: MC116; assay type: cell-based; conditions: MC116, 21 hrs
# Excerpt: (§1) The following cell lines representing various leukaemia's and lymphoma's, as classified by ATCC (www.atcc.org/), were used: Jurkat—acute T-cell leukaemia; CCRF-SB—B-cell acute lymphoblastic leukaemia; MC116—B-cell undifferentiated lymphoma; Raji, Ramos—Burkitt lymphoma (rare form of B-cell non-Hodgkin lymphoma); SU-DHL-4, SU-DHL-5, SU-DHL-8, NU-DUL-1, OCI-Ly3—Diffuse large B-cell lymphoma; THP-1—acute monocytic leukaemia; and Dakiki—B cell nasopharyngeal carcinoma.
# (§2) Prior to an assay being performed, 1 vial of each of the above cell lines was thawed in a 37° C. water bath and then added to 20 ml complete media (RPMI 1640+2 mM GlutaMAX+1% Pen/Strep, all previous supplied by Invitrogen, +10% Fetal Bovine Serum (FBS), Sigma Aldrich). Cells were spun (500 g, 5 min, at RT) and re-suspended in 20 ml complete media to wash and spun again. Cells were resuspended in 10 ml complete media and then counted using a ChemoMetec NucleoCounter NC-3000. 6×10^6 cells of each cell line were spun (500 g, 5 min, at RT) and re-suspended in 4.8 ml complete media. 1×10^5 cells in 80 μl were then added to each well of a Corning Costar 96-well, cell culture treated, U-shaped-bottom microplate (cat no. 07-200-95). The plate was rested in a 37° C., 5% CO2 incubator for 2 hrs
# (§3) Stocks of 4133-6294 BYbe and NegCtrl BYbe at 2500 nM in complete media were prepared. In a Greiner 96-well non-binding microplate, both reagents were serially diluted in complete media 1 in 5, seven times to produce to form an 8-point dose curve. […] (final well concentrations 500-0.0064 nM) was added to the cells. Each concentration was produced in triplicate. Camptothecin (cat no. C9911-100MG, Sigma Aldrich) and Staurosporine (cat no. 56942-200UL, Sigma Aldrich) were added as positive controls of apoptosis. Both were diluted in complete media and added to the well to produce a final concentration of 5 μM. Additional positive controls included anti-thymocyte globulin (ATG, indicated by FDA for use in conditioning regimens), Rituximab (anti-CD20, indicated by FDA for Non-Hodgkin Lymphoma and Chronic Lymphocytic Leukaemia) and Campath (anti-CD52, indicated by FDA for B-cell Chronic Lymphocytic Leukaemia). Anti-thymocyte globulin, Rituximab and Campath were added to the wells to produce final concentrations of 200 μg/ml, 500 nM and 200 μg/ml, respectively. […]
# (§4) Following the incubation, the plates were spun at 500 g, 5 min, RT, the buffer was aspirated with a BioTek ELx405 microplate washer, and the cells were re-suspended in FACS buffer (PBS+1% bovine serum albumin (BSA)+0.1% NaN3+2 mM EDTA, Sigma Aldrich) to wash and then re-spun and buffer was aspirated to leave the cells in 20 μl residual media. […] Cells were analysed using the Bio-Rad ZE5 Cell Analyzer. […]
# THP-1 = experiment: Apoptosis of cell lines: THP-1; assay type: cell-based; conditions: THP-1, 21 hrs
# Excerpt: as §1, §2, §3, §4
# [1] = test system: CD34+ stem cells in PBMCs; experiment: Apoptosis of peripheral blood haematopoietic stem cells in PBMCs; assay type: cell-based, human; conditions: 24 hrs, 200-0.00632 nM
# Procedure: Human whole blood (K2EDTA tubes) was received from one donor (#PR20T386505, from Cambridge Bioscience, UK). PBMCs were isolated from whole blood using pre-filled LeucoSep tubes (Greiner). Whole blood was layered on to the LeucoSep filter and tubes spun (800 g, 15 min, slow acceleration and deceleration, at RT). The buffy coat was extracted and cells washed twice in sterile PBS. PBMC were resuspended in 50 ml complete media (RPMI 1640+2 mM GlutaMAX+1% Pen/Strep, all previously supplied by Invitrogen, +10% Fetal Bovine Serum (FBS), Sigma Aldrich). Cells were counted using a ChemoMetec NucleoCounter NC-3000. 1×10^6 cells per well in 80 μl were then added to each well of a Corning Costar 96-well, cell culture treated, U-shaped-bottom microplate (cat no. 07-200-95).
# In a Greiner 96-well non-binding microplate, Fab-X and Fab-Y combination 6294-X/4133-Y, was added to complete media to give a Fab-KD-Fab concentration of 1000 nM. Similarly, 1000 nM stocks of 4133-6294 BYbe and NegCtrl BYbe were prepared in complete media. The microplate was incubated for 1 hr at 37° C., 5% CO2. Following the incubation, Fab-KD-Fab and BYbe reagents were then serially diluted in complete media in a half log dilution series, 7 times to produce an 8-point dose curve. […]
# Cells were analysed using the Bio-Rad ZE5 Cell Analyzer. […]
Molecule,Campath mean (%) cell reduction (MC116; 200 μg/ml) [%],Campath mean (%) cell reduction (THP-1; 200 μg/ml) [%],reductions in CD34+ stem cells [1] [%],reductions in total lymphocytes [1] [%],Top (%) level of % cell reduction (MC116) [%],Bottom (%) level of % cell reduction (MC116; calculated bottom of non-sigmoidal curve),Bottom (%) level of % cell reduction (THP-1) [%],Top (%) level of % cell reduction (THP-1) [%]
"Campath: anti-CD52, clinical grade, indicated by FDA for B-cell Chronic Lymphocytic Leukaemia; positive control [reference compound]",70.24,15.40,,,,,,
B1,,,53,98,99.45,−65.46* %,8.14,60.72

# Source: patent US20230374148A1, “BINDING MOLECULES THAT MULTIMERISE CD45” (UCB BIOPHARMA SRL, priority 2020, published 2023)
